Reference: publication PMC3771942 (Molecular Biology of the Cell, 2013)

Biological target: GST-Rho-G17A (UniProt P61586 1-193, G17A)
Assay: pull-down

Chain of GST-Rho-G17A (P61586 whole entry G17A): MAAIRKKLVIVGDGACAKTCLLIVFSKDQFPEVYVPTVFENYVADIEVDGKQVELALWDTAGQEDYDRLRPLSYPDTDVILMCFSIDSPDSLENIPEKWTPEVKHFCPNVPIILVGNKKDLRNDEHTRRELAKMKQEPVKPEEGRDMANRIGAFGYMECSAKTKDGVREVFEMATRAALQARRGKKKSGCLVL

fold decrease in pull down against wild-type LARG: 5 fold
B1: mCh-LARG-W769A (natural protein, UniProt Q9NZN5 1-1544, looked up)
chain: MSGTQSTITDRFPLKKPIRHGSILNRESPTDKKQKVERIASHDFDPTDSSSKKTKSSSEESRSEIYGLVQRCVIIQKDDNGFGLTVSGDNPVFVQSVKEDGAAMRAGVQTGDRIIKVNGTLVTHSNHLEVVKLIKSGSYVALTVQGRPPGSPQIPLADSEVEPSVIGHMSPIMTSPHSPGASGNMERITSPVLMGEENNVVHNQKVEILRKMLQKEQERLQLLQEDYNRTPAQRLLKEIQEAKKHIPQLQEQLSKATGSAQDGAVVTPSRPLGDTLTVSEAETDPGDVLGRTDCSSGDASRPSSDNADSPKSGPKERIYLEENPEKSETIQDTDTQSLVGSPSTRIAPHIIGAEDDDFGTEHEQINGQCSCFQSIELLKSRPAHLAVFLHHVVSQFDPATLLCYLYSDLYKHTNSKETRRIFLEFHQFFLDRSAHLKVSVPDEMSADLEKRRPELIPEDLHRHYIQTMQERVHPEVQRHLEDFRQKRSMGLTLAESELTKLDAERDKDRLTLEKERTCAEQIVAKIEEVLMTAQAVEEDKSSTMQYVILMYMKHLGVKVKEPRNLEHKRGRIGFLPKIKQSMKKDKEGEEKGKRRGFPSILGPPRRPSRHDNSAIGRAMELQKARHPKHLSTPSSVSPEPQDSAKLRQSGLANEGTDAGYLPANSMSSVASGASFSQEGGKENDTGSKQVGETSAPGDTLDGTPRTLNTVFDFPPPPLDQVQEEECEVERVTEHGTPKPFRKFDSVAFGESQSEDEQFENDLETDPPNAQQLVSREVLLGLKPCEIKRQEVINELFYTERAHVRTLKVLDQVFYQRVSREGILSPSELRKIFSNLEDILQLHIGLNEQMKAVRKRNETSVIDQIGEDLLTWFSGPGEEKLKHAAATFCSNQPFALEMIKSRQKKDSRFQTFVQDAESNPLCRRLQLKDIIPTQMQRLTKYPLLLDNIAKYTEWPTEREKVKKAADHCRQILNYVNQAVKEAENKQRLEDYQRRLDTSSLKLSEYPNVEELRNLDLTKRKMIHEGPLVWKVNRDKTIDLYTLLLEDILVLLQKQDDRLVLRCHSKILASTADSKHTFSPVIKLSTVLVRQVATDNKALFVISMSDNGAQIYELVAQTVSEKTVWQDLICRMAASVKEQSTKPIPLPQSTPGEGDNDEEDPSKLKEEQHGISVTGLQSPDRDLGLESTLISSKPQSHSLSTSGKSEVRDLFVAERQFAKEQHTDGTLKEVGEDYQIAIPDSHLPVSEERWALDALRNLGLLKQLLVQQLGLTEKSVQEDWQHFPRYRTASQGPQTDSVIQNSENIKAYHSGEGHMPFRTGTGDIATCYSPRTSTESFAPRDSVGLAPQDSQASNILVMDHMIMTPEMPTMEPEGGLDDSGEHFFDAREAHSDENPSEGDGAVNKEEKDVNLRISGNYLILDGYDPVQESSTDEEVASSLTLQPMTGIPAVESTHQQQHSPQNTHSDGAISPFTPEFLVQQRWGAMEYSCFEIQSPSSCADSQSQIMEYIHKIEADLEHLKKVEESYTILCQRLAGSALTDKHSDKS
